Test: soluble on expression in E. coli; label from the status in PepcDB or PDB records

Sequence | soluble on expression in E. coli
MQFVWEAERTKAKVNAMLCLKRQAVANPLFGKGRLKIFSDDLLFIEQIPQTADNPTDKLLQFRVDFLLFPRKANKSRKNIKNVKKLRTNSLISCNYM | not soluble
MQIEKLRGQGLDEFFQGILTLENLEECYAFFDDVCTVNEIQSMAQRFQVAKMLHDGKTYNVIESETGASTATISRVKRSLHYGNDMYDVVFSRMTKPE | not soluble
MQILFNDQAMQCAAGQTVHELLEQLDQRQAGAALAINQQIVPREQWAQHIVQDGDQILLFQVIAGG | soluble
MQIRNSHLYSASRLVQNTFNASSTKEAANTIAKNNESAALSATQTARTHEGDSKGKSSNGSRSHLRSMRYAAYLAGSAYLYDKTVNDFFLSTTSLNDGKQGFTSDARLQKAEKKAEANYHAYHNRANFGGVAPTRSSLLPKLCGENLFVTMLDFRAATKVHMKNLIDTKEAHDSIANNISCIMGERVKPELLKKHGIVQTPPDFDITKGASYDCKNKYSLSGVPNQETGSYGYASRSVSNPFIEKGENHHARAINSERALTPRNCVDALQPLLQKSERLSPEAQFRAGQALLILRPLYCSSENWGDAHKVLMPFLEKKGLVSSQENQKLGATRPFTQTDMEKGIARRNTSLAGPTLNKLNIFLQKSIYNKDEKAISDLTAKKLGEMKYIPIAHFKMNEDVSSFEDSSGLADSFTGYNVSAYINHARLLSGEDRLSKKDVIAIVGCLNAIYDNASSERHTLREIAHGCFVGAGYTVEDAEDFYNDACKAAATEFYGGRAINVQSQLYSSSVDKPDS | not soluble
MQIVQIARPGSMKGWIRKAVARYAHATGRGGKFYRRFCNPSGLEWGAYLARWGNFHSVGSNFYVNTGCKFLDPSLVRIGNSVGLSDCTLIGHDGVVLLIEHRFGKHLDSVGFIDIKDNCFIGHGAIVMPRVTIGPESIVAAGAVVTKDVPPGTVYGGNPAEFICTTEQLIKRVEARCEAYPWIDLVKQRNGAYDPEVEPLLMAQRRQYFFGDSLEHHHHHH | not soluble
MQKELINEIIGEVKPKAIALFGSQAKGKAGKFSDYDLLIITKDEESRNKAEKFEKGKVEIHALTMRTALELIHKGDPFFTQIVKECKPIYGEFYIKFLREVAENVGKSKVVA | not soluble
MQKINIDRHATAQINMLANKLMLKSSTAYTQKFGIGMTEWRIISVLSSASDCSVQKISDILGLDKAAVSRTVKKLEEKKYIEVNGHSEDKRTYAINLTEMGQELYEVASDFAIEREKQLLEEFEEAEKDQLFILLKKLRNKVDQM | soluble
MQKKSQTAQSYHPMIKEFPEFYGPLTCPGQFLALLILEFGLNFAEIQKLKWENFNWNFKYLTIEKAGIKRVLPIREKFAIRVKAINNADELFAKSRQFLYTELKKFTNYSSKEIREQYILHQVKAGKSIYELATLLGLTTITTLEKYYRLEHHHHHH | not soluble
MQKPDESNEKHDIPCTSASLLDHLIQKEASAAEDTDPLDHIGNIGEAIIGQFSSGADVGTEILQNALKMFDQAMAYTNPQAPPKRKYKRKEAPIEDAQPTTTSSATLASLLTLNPVPIESSAKRFHQNDLRAGFSPRTKFDVDCSDFFLLQGSDADTQFNNLHKKLEKERTQMFDDQVSKDVERLLNTANRVHGPREWTAEEKAEFTSYCRSWRSGALGADDKLNLQKFYSKAYGKVFQGLSENKASSEESAIDFSNFMGVGSEDPANQTEDVPGGSCKASPDNFSFSTLNPRMKYEKEKEFRSAINNIFTEVFKEFHSKKQFIPKPTRLDVPPCEIEREHLSMLMSKFSIAMDDPEKEWNVDELQELRRFYTLFREKNHLPFVQTKEFGKFLRKAFGRLEHYELQRENDTSLQEKRKFWQEYRKTHVPPKRERKACAARTTPVRPYIKSNIDTKGETEEERRLRRAAYLRKWRLAQKEKHSADVMSQFKHQEDVAL | not soluble
MQKTFEEYERFFTTEKDMIPATIFTAPKKKFLQADSKFYEKRRVWILVISQHLVDNNLRSEDVRRFFHLESPDDDENNVDLGPSERKTATANDFDYLTTIGKGSFGRVYQVRHKETKKIYAMKILSKEHIRKKNEVKHVMAERNVLINNFKHPFLVSLHFSFQNKEKLYFVLDHLNGGELFSHLQREKHFSESRSRFYAAEIACALGYLHEKNIIYRDLKPENLLLDDKGYLVLTDFGLCKEDMQGSKTTSTFCGTPEYLAPEIILKKPYDKTVDWWCLGSVLYEMIFGLPPFYSKDHNEMYDKIINQPLRLKHNISVPCSELITGLLQKDRSKRLGHRNDFRDIRDHPFFLPVDWDKLLNRELKAPFIPKVKNAMDTSNISKEFVEIQIDPSSLAPQQLAVTHRDHDFENFTFVDTNRVLV | not soluble
MQKVEGIIFDMDGVLFDSERISLEFWMETFEKYGYTMTKEIYTSVMGRNRKGIIEGLTDIYDSSVPIIDLYDEKTKNMIEFMERKGAPIKLGVNELISFLKENGYKMAVATSTKRERAVKRLAKANLKDYFDAIVCGDDVVNSKPNPEIFLKAAKKINVNPKNCIVIEDSPMGVEAAYNGGIRCINVPDLKEPDEQIKSQSHKILENLLEVREYLKSLNSKECHNL | not soluble
MQLKRVAEAKLPTPWGDFLMVGFEEIATGHDHLALVYGDISGSVPVLARVHSECLTGDALFSLRCDCGFQLEAALGHIAEEGRGVLLYHRQEGRNIGLLNKIRAYALQDLGADTVEANHQLGFAADERDFTLCADMFKLLDVDEVRLLTNNPQKVKILNEAGINIVERVPLIVGRNPKNEHYLATKAAKMGHILDMKLEHHHHHH | not soluble
MQNIFDPLIIRGKSLIPIVQGGMGVGVSASGLSSAVARENGIGTIASVDLRHLHEDLLAESQINPSEEKYTSLNCTALDREIQKAKSASEGKGLIAVNVMKAVKDHAAYVRQACESGADAVVMGAGLPLDLPEMTEGYHKDVALLPILSESRGINIVLKRWMKKGILPDAIVVEHPAHAAGHLGASTVEGVNDAKFDFKRVIEETFEVFKNLGLEGEKIPLILAGGMANFEKVKTALKNWGASAVQIGTAFAVTEEGDAHLNFKKTLASAETEKVVEFMSVAGLPARGIRTKFLDSYIRREGKLQANAKADPRRCTQGLNCLTSCGLRDGLSKAGQFCIDIQLAAAFRGEVDKGLFFRGKDQLPFGNAIRTVRETIQYLLTGSEPVATLGR | not soluble
MQPSIAPSTPIPRQETVELVYRIFGDVLVPLEQVRERWFRNLNKENFSKALACGRIALPVTTLDDSHKAMQFVALDHLAAYVDQRANQAGSARRAQPGADSIAS | not soluble
MQQLLAPVHAFLRCETPQTWIDVARASASLDELLIDHCNCELKAAQTAMFLLRRYALNAESGQSLLAWAKPYEEFVYHKDRDIEQFLARDVKKNELVAVLQPNQHFSFAQDLIPPLIRLIKEEFHHFEQVLELMHARQIPYRNIRAGRYAKGMMSHVTTHEKNILRDKLIVGAYIEARSCERFAKLAPYLDAELSKFYVSLLRSEARHFEDYLKLAQLVSSEDISERVAYFGEREAELIMAPDDEFHFHSGQPQAIKYSYA | not soluble
MQQNIRIQKNQYDTATHPTASSTTWKYVTYDETSETFGMSEQVADPCNHCPKPRNYNSECKDEDVEKHFEKVMPCVHTYTIIYGNVHHLPNHPIIRNLRHNHY | soluble
MQQQGWRTYLYDAEQPYTPVASVTGKGESRQVWYYHTDVTGTPQEVTAADGTLVWAGYIKGFGENAADISNSGAYFHQPLRLPGQYFDDETGLHYNLFRYYAPECGRFVSQDPIGLAGGLNLYQYAPNPIRWIDPLGLAILEHQSNFDAARRTGFENAGMTNPEDVTFSKVDPKTGTVVEFKGPNGAKVAYDAPHADMDVTAGHDKPHVGWQSAGKRGSGGANRGNITYDGPQHPHRSDSKGDDKCLEHHHHHH | not soluble
MQRLEESTSCRGVGDMRKAIIVGVGMTPVGEHWRSSLRDLAVEAILNAMDDAGIDKVDSLYVGNMASGSFVEQENLGALIADWAGLGNIPAVKIEAACASGGAAVQEGAKAVLSGLEDVVLVVGVEKMTDAWPSDATRYLGYAADAEWELFHGASFVALNALIMRLYMNTYGYKEEDLALFAVNAHANGAKNPYAMFKKPITVETVMKSPYIADPLKLFDASPVCDGAAAVIITTPEKAKELGIPKDKWIEIAGMGRAIDTINLANREDFLTLKAATIAAERAYKMAGVKPEDVDFFEVHDAFTVMAALSLEALGVAKKGEGAKLAIEGQIAIDGDYPIQTMGGLKARGHPVGATGVYQVVEAVLQLRGEAPDGIQVPDAEVGLTQNIGGTGSNITVTVLRRV | not soluble

Reference: the DeepSol protein solubility set
